Source: patent US20250215104A1 (WALDEN BIOSCIENCES, published 2025)

B1: suPAR_DB03_C09 (scFv, V domains shown)
VH: QVQLVQSGAEVKKPGASVKVSCKASGYTFTSYYMHWVRQAPGQGLEWMGWIDHENGSTIYDQKFQGRVTMTRDTSTSTVYMELSSLRSEDTAVYYCARGYDVDWFVYWGQGTLVTVSS
VL: DIQMTQSPSSLSASVGDRVTITCSARQSVSYMYWYQQKPGKAPKLLIYRTSNLASGVPSRFSGSGSGTDFTLTISSLQPEDFATYYCQQYHSYPPTFGGGTKVEIK
notes: screened as scFv
B2: suPAR_DB03_C10 (scFv, V domains shown)
VH: QVQLVQSGAEVKKPGASVKVSCKASGYTFTSYYMHWVRQAPGQGLEWMGWIDHEGGSTIYAQKFQGRVTMTRDTSTSTVYMELSSLRSEDTAVYYCASGYDVDWFVYWGQGTLVTVSS
VL: DIQMTQSPSSLSASVGDRVTITCSARSSVSYMYWYQQKPGKAPKLLIYRTSNLASGVPSRFSGSGSGTDFTLTISSLQPEDFATYYCQQYHSYPPTFGGGTKVEIK
notes: screened as scFv
B3: suPAR_DB03_C12 (scFv, V domains shown)
VH: QVQLVQSGAEVKKPGASVKVSCKASGNTFTNYYMHWVRQAPGQGLEWMGWIDHENGNTSYDQKFQGRVTMTRDTSTSTVYMELSSLRSEDTAVYYCARGYDVDWFVYWGQGTLVTVSS
VL: DIQMTQSPSSLSASVGDRVTITCSARSSVSYMYWYQQKPGKAPKLLIYRTSNLASGVPSRFSGSGSGTDFTLTISSLQPEDFATYYCQQYHSYPPTFGGGTKVEIK
notes: screened as scFv
B4: suPAR_DB03_D01 (scFv, V domains shown)
VH: QVQLVQSGAEVKKPGASVKVSCKASGFNIKDYYIHWVRQAPGQGLEWMGWMDPNSGGTNYAQKFQGRVTMTRDTSTSTVYMELSSLRSEDTAVYYCARGYDVDWFVYWGQGTLVTVSS
VL: DIQMTQSPSSLSASVGDRVTITCSARSSVSYMYWYQQKPGKAPKLLIYRTSNLASGVPSRFSGSGSGTDFTLTISSLQPEDFATYYCQQYHSYPPTFGGGTKVEIK
notes: screened as scFv
B5: suPAR_DB03_D02 (scFv, V domains shown)
VH: QVQLVQSGAEVKKPGASVKVSCKASGYTFTRYYLHWVRQAPGQGLEWMGWIDPENGNTIYAQKFQGRVTMTRDTSTSTVYMELSSLRSEDTAVYYCARGYDVDWFVYWGQGTLVTVSS
VL: DIQMTQSPSSLSASVGDRVTITCSARSSVSYMYWYQQKPGKAPKLLIYRTSNLASGVPSRFSGSGSGTDFTLTISSLQPEDFATYYCQQYHSYPPTFGGGTKVEIK
notes: screened as scFv
B6: suPAR_DB03_D03 (scFv, V domains shown)
VH: QVQLVQSGAEVKKPGASVKVSCKASGYTFTGYYIHWVRQAPGQGLEWMGWIDPENGNTIYAQKFQGRVTMTRDTSTSTVYMELSSLRSEDTAVYYCARGYDVDWFVYWGQGTLVTVSS
VL: DIQMTQSPSSLSASVGDRVTITCRARQSVSYMYWYQQKPGKAPKLLIYRTSNLASGVPSRFSGSGSGTDFTLTISSLQPEDFATYYCQQYHSYPPTFGGGTKVEIK
notes: screened as scFv
B7: suPAR_DB03_D04 (scFv, V domains shown)
VH: QVQLVQSGAEVKKPGASVKVSCKASGYTFTNYYMHWVRQAPGQGLEWMGWIDPENGSTIYDQKFQGRVTMTRDTSTSTVYMELSSLRSEDTAVYYCARGYDVDWFVYWGQGTLVTVSS
VL: DIQMTQSPSSLSASVGDRVTITCSARSSVSYMYWYQQKPGKAPKLLIYRTSNLASGVPSRFSGSGSGTDFTLTISSLQPEDFATYYCQQSHSYPPTFGGGTKVEIK
notes: screened as scFv
B8: suPAR_DB03_D05 (scFv, V domains shown)
VH: QVQLVQSGAEVKKPGASVKVSCKASGDNFTTYYMHWVRQAPGQGLEWMGWIDPENGNTIYAQKFQGRVTMTRDTSTSTVYMELSSLRSEDTAVYYCARGYDVDWFVYWGQGTLVTVSS
VL: DIQMTQSPSSLSASVGDRVTITCSARSSVSYMYWYQQKPGKAPKLLIYRTSNLASGVPSRFSGSGSGTDFTLTISSLQPEDFATYYCQQYHSYPPTFGGGTKVEIK
notes: screened as scFv
B9: suPAR_DB03_D06 (scFv, V domains shown)
VH: QVQLVQSGAEVKKPGASVKVSCKASGYSFTNYYMHWVRQAPGQGLEWMGWIDHENGNTSYAQKFQGRVTMTRDTSTSTVYMELSSLRSEDTAVYYCARGYDVDWFVYWGQGTLVTVSS
VL: DIQMTQSPSSLSASVGDRVTITCSARSSVSYMYWYQQKPGKAPKLLIYRTSNLASGVPSRFSGSGSGTDFTLTISSLQPEDFATYYCQQYHSYPPTFGGGTKVEIK
notes: screened as scFv
B10: suPAR_DB03_D07 (scFv, V domains shown)
VH: QVQLVQSGAEVKKPGASVKVSCKASGNTFTNYYVHWVRQAPGQGLEWMGWIDPSNGNTIYDQKFQGRVTMTRDTSTSTVYMELSSLRSEDTAVYYCARGYDVDWFVYWGQGTLVTVSS
VL: DIQMTQSPSSLSASVGDRVTITCSARSSVSYMYWYQQKPGKAPKLLIYRTSNLASGVPSRFSGSGSGTDFTLTISSLQPEDFATYYCQQYHSYPPTFGGGTKVEIK
notes: screened as scFv
B11: suPAR_DB03_D08 (scFv, V domains shown)
VH: QVQLVQSGAEVKKPGASVKVSCKASGYTFTGYYMHWVRQAPGQGLEWMGWIDPENGSTIYDQKFQGRVTMTRDTSTSTVYMELSSLRSEDTAVYYCARGYDVDWFVYWGQGTLVTVSS
VL: DIQMTQSPSSLSASVGDRVTITCSARQSVSYMYWYQQKPGKAPKLLIYRTSNLASGVPSRFSGSGSGTDFTLTISSLQPEDFATYYCQQYHSYPPTFGGGTKVEIK
notes: screened as scFv
B12: suPAR_DB03_D09 (scFv, V domains shown)
VH: QVQLVQSGAEVKKPGASVKVSCKASGYTFTGYYMHWVRQAPGQGLEWMGWIDHENGSTIYAQKFQGRVTMTRDTSTSTVYMELSSLRSEDTAVYYCARGYDVDWFVYWGQGTLVTVSS
VL: DIQMTQSPSSLSASVGDRVTITCSARSSVSYMYWYQQKPGKAPKLLIYRTSNLQSGVPSRFSGSGSGTDFTLTISSLQPEDFATYYCQQYHSYPPTFGGGTKVEIK
notes: screened as scFv
B13: suPAR_DB03_D10 (scFv, V domains shown)
VH: QVQLVQSGAEVKKPGASVKVSCKASGYTFTSYYMHWVRQAPGQGLEWMGWIDPENGNTIYAQKFQGRVTMTRDTSTSTVYMELSSLRSEDTAVYYCARGYDVDWFVYWGQGTLVTVSS
VL: DIQMTQSPSSLSASVGDRVTITCSARSSVSYMYWYQQKPGKAPKLLIYRTSNLQSGVPSRFSGSGSGTDFTLTISSLQPEDFATYYCQQYHSYPPTFGGGTKVEIK
notes: screened as scFv
B14: suPAR_DB03_D12 (scFv, V domains shown)
VH: QVQLVQSGAEVKKPGASVKVSCKASGYTFSNYYMHWVRQAPGQGLEWMGWIDPENGNTIYAQKFQGRVTMTRDTSTSTVYMELSSLRSEDTAVYYCARGYDVDWFVYWGQGTLVTVSS
VL: DIQMTQSPSSLSASVGDRVTITCRARSSVSYMYWYQQKPGKAPKLLIYRTSNLQSGVPSRFSGSGSGTDFTLTISSLQPEDFATYYCQQYHSYPPTFGGGTKVEIK
notes: screened as scFv
B15: suPAR_DB03_E02 (scFv, V domains shown)
VH: QVQLVQSGAEVKKPGASVKVSCKASGYNFTGYYIHWVRQAPGQGLEWMGWIDHENGNTIYAQKFQGRVTMTRDTSTSTVYMELSSLRSEDTAVYYCARGYDVDWFVYWGQGTLVTVSS
VL: DIQMTQSPSSLSASVGDRVTITCSARSSVSYMYWYQQKPGKAPKLLIYRTSNLASGVPSRFSGSGSGTDFTLTISSLQPEDFATYYCQQYHSYPPTFGGGTKVEIK
notes: screened as scFv
B16: suPAR_DB03_E03 (scFv, V domains shown)
VH: QVQLVQSGAEVKKPGASVKVSCKASGYTVTNYYMHWVRQAPGQGLEWMGWIDHENGNTIYDQKFQGRVTMTRDTSTSTVYMELSSLRSEDTAVYYCARGYDVDWFVYWGQGTLVTVSS
VL: DIQMTQSPSSLSASVGDRVTITCRARSSVSYMYWYQQKPGKAPKLLIYRTSNLASGVPSRFSGSGSGTDFTLTISSLQPEDFATYYCQQYHSYPPTFGGGTKVEIK
notes: screened as scFv
B17: suPAR_DB03_E04 (scFv, V domains shown)
VH: QVQLVQSGAEVKKPGASVKVSCKASGYTFTGHYMHWVRQAPGQGLEWMGWIDPENGSTIYDQKFQGRVTMTRDTSTSTVYMELSSLRSEDTAVYYCARGYDVDWFVYWGQGTLVTVSS
VL: DIQMTQSPSSLSASVGDRVTITCSARSSVSYMYWYQQKPGKAPKLLIYRTSNLASGVPSRFSGSGSGTDFTLTISSLQPEDFATYYCQQYHSYPPTFGGGTKVEIK
notes: screened as scFv
B18: suPAR_DB03_E06 (scFv, V domains shown)
VH: QVQLVQSGAEVKKPGASVKVSCKASGYTFTGQYVHWVRQAPGQGLEWMGWIDHENGNTIYDQKFQGRVTMTRDTSTSTVYMELSSLRSEDTAVYYCARGYDVDWFVYWGQGTLVTVSS
VL: DIQMTQSPSSLSASVGDRVTITCSARSSVSYMYWYQQKPGKAPKLLIYRTSNLASGVPSRFSGSGSGTDFTLTISSLQPEDFATYYCQQYHSYPPTFGGGTKVEIK
notes: screened as scFv
B19: suPAR_DB03_E08 (scFv, V domains shown)
VH: QVQLVQSGAEVKKPGASVKVSCKASGYTFTHYYMHWVRQAPGQGLEWMGWIDPEGGSTIYDQKFQGRVTMTRDTSTSTVYMELSSLRSEDTAVYYCARGYDVDWFVYWGQGTLVTVSS
VL: DIQMTQSPSSLSASVGDRVTITCRASSSVSYMYWYQQKPGKAPKLLIYRTSNLASGVPSRFSGSGSGTDFTLTISSLQPEDFATYYCQQYHSYPPTFGGGTKVEIK
notes: screened as scFv
B20: suPAR_DB03_E09 (scFv, V domains shown)
VH: QVQLVQSGAEVKKPGASVKVSCKASGFNIKDYYIHWVRQAPGQGLEWMGWIDPNSGGTNYAQKFQGRVTMTRDTSTSTVYMELSSLRSEDTAVYYCARGYDVDWFVYWGQGTLVTVSS
VL: DIQMTQSPSSLSASVGDRVTITCRARQSVSYMYWYQQKPGKAPKLLIYRTSNLASGVPSRFSGSGSGTDFTLTISSLQPEDFATYYCQQYHSYPPTFGGGTKVEIK
notes: screened as scFv

Tests used:
cynomolgus suPAR = target: T1, cynomolgus suPAR (cynomolgus, UniProt Q9GK78 23-303, limits assumed); assay: BLI (Octet) off-rate screen of scFv clones
T1 construct: Target antigen of the off-rate screen; also called cynomolgus uPAR; cynoPLAUR-His

[1] = target: T2, human soluble urokinase plasminogen activator receptor (hsuPAR) (human, UniProt Q03405 23-303, limits assumed); assay: BLI (Octet) off-rate screen of scFv clones
T2 construct: Target antigen of the off-rate screen; also called human suPAR; rhuPAR-His
T2 sequence (Q03405 23-303 limits assumed): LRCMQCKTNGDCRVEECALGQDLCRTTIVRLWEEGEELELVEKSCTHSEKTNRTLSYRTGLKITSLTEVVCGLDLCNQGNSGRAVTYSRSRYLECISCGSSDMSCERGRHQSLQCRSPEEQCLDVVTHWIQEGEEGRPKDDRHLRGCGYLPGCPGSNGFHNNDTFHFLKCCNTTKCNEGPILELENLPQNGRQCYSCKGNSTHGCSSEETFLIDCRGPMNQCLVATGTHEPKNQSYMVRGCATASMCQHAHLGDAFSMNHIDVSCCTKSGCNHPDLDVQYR

T1 sequence (Q9GK78 23-303 limits assumed): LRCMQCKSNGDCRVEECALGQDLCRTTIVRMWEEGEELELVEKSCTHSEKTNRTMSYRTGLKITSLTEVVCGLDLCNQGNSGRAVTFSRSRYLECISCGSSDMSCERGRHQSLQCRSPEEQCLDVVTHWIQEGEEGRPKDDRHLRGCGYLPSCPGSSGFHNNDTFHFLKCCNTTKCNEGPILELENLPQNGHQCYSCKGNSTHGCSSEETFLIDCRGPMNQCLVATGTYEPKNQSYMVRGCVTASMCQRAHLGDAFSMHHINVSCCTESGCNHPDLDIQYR

Binder	koff (cynomolgus suPAR) [s⁻¹]	koff [1] [s⁻¹]
B1	3.75e-07	0.00103
B2	0.000301	0.00452
B3	7.59e-05	0.00396
B4	8.49e-05	0.00416
B5	0.000241	0.00755
B6	0.000156	0.00258
B7	0.0059	0.00325
B8	3.55e-05	0.00482
B9	0.000388	0.00295
B10	0.000163	0.00308
B11	0.000482	0.00458
B12	0.000508	0.000746
B13	0.000286	0.00527
B14	0.000263	0.0057
B15	0.000258	0.00358
B16	0.000132	0.00231
B17	0.000669	0.00556
B18	7.36e-05	0.0044
B19	0.00025	0.005
B20	0.000132	0.00426
